Data from a protein production outcome set (Wang et al. 2014).

Assay: label from the status in PepcDB records

Row | Sequence | protein production
1 | MKPRKKSVQPIGLKDITIVDDAKMKKAITAAALGNAMEWFDFGVYGFVAYALGKVFFPNADPSVQMIAALATFSVPFLIRPLGGLFFGALGDRFGRQKILAATIVIMSLSTFAIGLIPSYASIGIWAPILLLLAKMAQGFSVGGEYTGASIFVAEYAPDRKRGFLGSWLDFGSIAGFVLGAGVVVLISTVLGEEKFLDWGWRLPFFLALPLGIIGLYLRHALEETPAFQQHVDKLEQGDREGLASGPKVSFKEVATQHWRSLVTCIGVVIATNVTYYMLLTYMPSYLSHNLHYSEDHGVLIIIAIMVGMLFVQPIIGLLSDKFGRRPFIIVGSVGLLALAIPAFMLINSGVLGLIFAGLLIIAVLLNFFIGVMASTLPAMFPTHIRYSALASAFNISVLIAGLTPTLAAWLVETTNDLYMPAYYLMVIAAVGLVTGLTMKETANKPLRGAAPAASDIEEARELLQEHHDNIEQKIEDIDAQIAELEAKREKLALQHPRIE | not failed
2 | MEEGDFFNCCFSEISSGMTMNKKKMKKSNNQKRFSEEQIKSLELIFESETRLEPRKKVQVARELGLQPRQVAIWFQNKRARWKTKQLEKEYNTLRANYNNLASQFEIMKKEKQSLVSELQRLNEEMQRPKEEKHHECCGDQGLALSSSTESHNGKSEPEGRLDQGSVLCNDGDYNNNIKTEYFGFEEETDHELMNIVEKADDSCLTSSENWGGFNSDSLLDQSSSNYPNWWEFWS | failed
3 | MSLSRVTEIRYVGYGVKDFDAEKAFYADVWGLEPVGEDANNAWFKAQGADEHHVVQLRRADENRIDVIALAADSRSDVDALRASVEAAGCKVASEPAVLATPGGGYGFRFFSPDGLLFEVSSDVAKGAKRDLARWEGVPVKISHIVLHSPNHQDMVKFFTDVLGFKVSDWLGDFMCFLRCNSAHHRIAILPGPPCLNHVAYDMLSVDDMMRGAHRLKVKGIDIGWGPGRHTAGNNTFSYFVTPGGFVTEYTSELEEVDFDTHQYKVHVPAPMVMDQWGIGTGGPQTLPHPHANPGLFQTAEAEGHHHHHH | not failed
4 | MNRVDLSIFIPDSLTAETGDLKIKTYKVVLIARAASIFGVKRIVIYHDDADGEARFIRDILTYMDTPQYLRRKVFPIMRELKHVGILPPLRTPHHPTGKPVTGEYRQGLTVKRVKKGTLVDIGADKLALCREKLTVNRIMSFRVVRLGKEILIEPDEPEDRYWGYEVLDTRRNLAESLKTVGADVVVATSRNASPITSILDEVKTRMRGAREAAILFGGPYKGLPEIDADIWVNTLPGQCTETVRTEEAVLATLSVFNMLTQIDEKDE | not failed
5 | MSLYKRKSKLIGLLLPDMSNPFFTLIARGVEDVALAHGYQVLIGNSDNDIKKAQGYLATFVSHNCTGMISTAFNENIIENTLTDHHIPFVFIDRINNEHNGISTNHFKGGQLQAEVVRKGKGKNVLIVHENLLIDAFHQRVQGIKYILDQQRIDYKMLEATLLDNDKKFIDLIKELSIDSIICSNDLLAINVLGIVQRYHFKVPAEIQIIGYDNIPFSEMTYPQITTIDQSAYHLGEIAVSQLLGLNTDNLTNNHKQLALTVKHRGSTREGHHHHHH | not failed
6 | MRINTRRKKWAAVAVVTLVSVIASVIVTVIVVGTLDPQSLRPAIIVPLLVAPLATHWGAERLLEIDKLNQQLAHLNRIDQMTQLYNRACLLEKLEQEPEEAGMILIADIDHFKQINDTYGHDVGDLVIIEVARVLQRSSLPEGIAARFGGEEFVIYVPRLDLEAAEFRAEAIRQAVEAQSVMIDGRKLSCTISIGIEIRQMQENVGDVLKRADEALYRAKAQGRNQVVAARRLARAGKSRETAQARRAP | failed
7 | MKHLNIYIMLLGFSIFTGATFNLAKYTVGYFSPSSSAAWRFGLAAAVMLIILIFTEGIKKSQLRKNAVSYIVLGIIGIFGFNALFFVGLKYTSPVNGALIMGLNPLLTAILARIILKDNMTKKQVLGIFFAFIGVLLVITQGSIETIKTLSISGGDLIIFTGNVCWALYGVLGRRFVKDGTPLSTTTYTMVIGAVSLIVVSLFTSKPVSLSNIPIGVWGAIAFMAFFTSVLGYLWWNQGIKEIGASKTSLFFNLVPVVTMIISFAVGTPIKVFQVIGAVLVILGVLTASGVIRIPKYNTKEQSAI | failed
8 | MFRPPSIKDAKKIWELIGRCKPLDINSPYCYALIGRDFFDSSIVYEEEGRIKGVVIGYLRPRAPERLFVWQVAIEAKSRGKGIAKRAIEAILKNLERKGHCIQAIEATYTPSNLASKALFHALGREWKVVWIEENFLEGALLSAQEAHEEEWLITLPFSSEALGVQGANHANL | failed
9 | MLLILIIIAFVVLFVFFAKYQKKQAQAAALAAGDPSALLNHGLTLINQNQVETGLDFIHQAVDKGFAIAAIALAELYSGRFPQVPADAKASNDWYKKAAELDPQYLAMLTLPNLLSSQAQTPDELIAQVEQLKPNAEAGQAEFQYELAYLYLRQPFLDPDASQAIYWFEKAAAQNKQEANYHLGTLYKDDERITSDYNKARKYFEKAVAAGDELAKDNLAHMLATGQGGPKDLVRAEHLLSEYAAEDDFRQYYLGKRFLYGEDFAVDYDKARHWLEKSSAAGNVFAKLALAHLKLLAQKNDQDYLQARTEFEALAPQWQEEALFGLGKIYEEGLGVSRQPIKALMYYQLAAMSHNTDYLTAYDKLSKRLGTLEIREAQSLCNNFLHQHPIPNEQQAYYYLNQAEIYRKGDHPSREGLQTAETWYRKSADLGNQNAMQALVEIYRHELMDKPVQAFIWSSILLRNFGKYGMNSDQLLYQQQAQSRLTESELLYAQSEIERIEALLTPYLETHQSV | failed
10 | MTTPIRVVVWNEFRHEKKDEQVRAIYPEGMHTVIASYLAEAGFDAATAVLDEPEHGLTDEVLDRCDVLVWWGHIAHDEVKDEVVERVHRRVLEGMGLIVLHSGHFSKIFKKLMGTTCNLKWREADEKERLWVVAPGHPIVEGIGPYIELEQEEMYGEFFDIPEPDETIFISWFEGGEVFRSGCTFTRGKGKIFYFRPGHETYPTYHHPDVLKVIANAVRWAAPVNRGEIVFGNVKPLEPIKAKQGGVTQ | not failed
11 | MRLTGEIMKIITCFKLVPEEQDIVVTPEYTLNFDNADAKISQFDLNAIEAASQLATDDDEIAALTVGGSLLQNSKVRKDVLSRGPHSLYMVQDAQLEHALPLDTAKALATAVEKIGFDLLIFGEGSGDLYAQQVGLLVGELLQLPVINAVSAIQRQGNTLVIERTLEDDVEVIELSVPAVLCVTSDINVPRIPSMKAILGAGKKPVNQWQASDIGWSQSAPLAELTGIRVPPQTKRKHIILDNDSPEAIAELAEHLKKALN | failed
12 | MPAKVLINGYGSIGKRVADAVSMQDDMEVIGVTKTKPDFEARLAVEKGYKLFVAIPDNERVKLFEDAGIPVEGTILDIIEDADIVVDGAPKKIGKQNLENIYKPHKVKAILQGGEKAKDVEDNFNALWSYNRCYGKDYVRVVSCNTTGLCRILYAINSIADIKKARIVLVRRAADPNDDKTGPVNAITPNPVTVPSHHGPDVVSVVPEFEGKILTSAVIVPTTLMHMHTLMVEVDGDVSRDDILEAIKKTPRIITVRAEDGFSSTAKIIEYGRDLGRLRYDINELVVWEESINVLENEIFLMQAVHQESIVIPENIDCIRAMLQMEEDNFKSIEKTNKAMGIQ | not failed
13 | MLDLQMKTAVIAVYKNAAFLEENVRLLQKEGFDVIVAADEPEESVREIIEKYSLRATVSERRRGKWRALNDAARIADGEELLFLDSDTIIKNLTGLNGADVVEVVKEVEGKGLLEKLVAVDYLVMAMCAKLASKFGSCLGVNGAAFLIKRRAFEELGGFRCKVNEDTELGIRAALGGYRFAVCGRAVTSVPKSIGEWFRQRERWSVGGTEVFVENLSAIIRKPRLWVPYLVLFYPAIFGLVISLFFTENYIAKLLYLVLPFLALISPKLASIAILAVYEMENVRNLVAGVASFVAWSGLILLASKKLGYRVDMKVLPIYYFIYSPLWTVICLISLVRVAVARVTGRKIELKDWVV | failed
14 | MTTATAGLAVELKQSTAQAHEKAEHSTFMSDLLKGRLGVAEFTRLQEQAWLFYTALEQAVDAVRASGFAESLLDPALNRAEVLARDLDKLNGSSEWRSRITASPAVIDYVNRLEEIRDNVDGPALVAHHYVRYLGDLSGGQVIARMMQRHYGVDPEALGFYHFEGIAKLKVYKDEYREKLNNLELSDEQREHLLKEATDAFVFNHQVFADLGKGL | not failed
